In the supplement of paper PMC9170038:

Tested on: MS2 coat protein
Assay: apparent KD of MS2 coat protein; designed switch direction (-1 OFF switch, 1 ON switch): 1; higher = weaker reporter binding
Summary of the method: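 Transcription of designed RNA switches on Illumina chips was done by stalled E. coli RNA polymerase. SNAP-549-labelled MS2 coat protein was then titrated in doubling steps from 0.7 or 1.5 nM to 3 µM, with steps of 0.8–1.5 h at the lowest and 10–20 min at the highest concentration. The per-design median over clusters of curve-fitted normalised fluorescence is reported as apparent KD.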

[1] = Eterna round: R95, input ligand: FMN 200 uM
[2] = Eterna round: R95, input ligand: microRNA oligo, concentration not stated
[3] = Eterna round: R95, input ligand: none
[4] = input ligand: microRNA oligo, concentration not stated

Row | Sequence | apparent KD of MS2 coat protein [1] | apparent KD of MS2 coat protein [2] | apparent KD of MS2 coat protein [3] | apparent KD of MS2 coat protein (input ligand: FMN 200 uM) | apparent KD of MS2 coat protein [4] | apparent KD of MS2 coat protein (input ligand: none)
1 | ACAAGCUUUUUAGGAGAGAAAGGUGGGAUACAUGAGGAUCACCCAUGUAUUGUUGUUAAUAGUGGACCUCGUCUUAU [JR_SHM208A_Sub083] (puzzle: Sensor for hsa-mir-208a) | 26.5 nM | 15.7 nM | 29.2 nM |  |  | 
2 | ACAUAGGGAACAGGAUAUGGGAAAAUUCCCUACAUGAGGAUCACCCAUGUCCGUAGGGACAACAUCCAGAAGGGUUACCACAUA [Eternabot solution 1] (Eterna round: R96, puzzle: Same State NG 2) |  |  |  | 211 nM | 549 nM | 656 nM
3 | ACAUGAAAUUCAGGAUAUUUUGUACCUACAUGUGACAUGAGGAUCACCCAUGUGGUAAGUAUGAGAAAGAAGGGAAAGAUAUGU [Equivalence 10 - Jieux - Same State NG 2] (Eterna round: R96, puzzle: Same State NG 2) |  |  |  | 25.4 nM | 41.9 nM | 45.6 nM
4 | ACAUGAGACAAAGGAUAUGGUGUACCUACAUGUGACAUGAGGAUCACCCAUGUGGUAAGUAUGACUCAGAAGGUUGAGAUAUGU [Equivalance 74 - Jieux - Same State NG 2] (Eterna round: R96, puzzle: Same State NG 2) |  |  |  | 37 nM | 203 nM | 299 nM
5 | ACAUGAGACCAAGGAUAUCUUGUACCUACAUGUGACAUGAGGAUCACCCAUGUGGUAAGUAUGAGGGAGAAGGUGGAGAUAUGU [Equivalence 25 - Jieux - Same State NG 2] (Eterna round: R96, puzzle: Same State NG 2) |  |  |  | 26.2 nM | 18.8 nM | 36.7 nM
6 | ACAUGAGACCAAGGAUAUGUUGUACCUACAUGUGACAUGAGGAUCACCCAUGUGGUAAGUAUGAGGCAGAAGGUGGAGAUAUGU [Equivalence 26 - Jieux - Same State NG 2] (Eterna round: R96, puzzle: Same State NG 2) |  |  |  | 26.5 nM | 44.2 nM | 59.3 nM
7 | ACAUGAGACUUAGGAUAUGUUGUACCUACAUGUGACAUGAGGAUCACCCAUGUGGUAAGUAUGACACAGAAGGAAGAGAUAUGU [Equivalance 67 - Jieux - Same State NG 2] (Eterna round: R96, puzzle: Same State NG 2) |  |  |  |  | 18.9 nM | 
8 | ACAUGAGAGAUAGGAUAUCGUGUACCUACAUGUGACAUGAGGAUCACCCAUGUGGUAAGUAUGAGCGAGAAGGAUCCGAUAUGU [salish99_SSNG2_r04_1001] (Eterna round: R96, puzzle: Same State NG 2) |  |  |  | 18.6 nM | 38.6 nM | 66.4 nM
9 | ACAUGAGAGGGAGGAUAUUUUGUACCUACAUGUGACAUGAGGAUCACCCAUGUGGUAAGUAUGAGAAAGAAGGCCCAGAUAUGU [Equivalence 18 - Jieux - Same State NG 2] (Eterna round: R96, puzzle: Same State NG 2) |  |  |  | 17.4 nM | 18.9 nM | 27.4 nM
10 | ACAUGAGGAUCACCCAUGUAGGCUCAGGAAACUGUGCCACAUGAGGAUAUGGAUCCUAAUUGGAUCCAGAAGGCAUGUAUUAUU [Fiskers NG3ss - 22] (Eterna round: R96, puzzle: Same State NG 3) |  |  |  | 112 nM | 41.6 nM | 66.1 nM
11 | ACCCAAAGUAUAUGGGAACAGGCUUUUUAACAUGAGGAUCACCCAUGUACUCGUCUUAUAAGCAGUCGAAAGACUGC [Sensor 100 - 2] (puzzle: Sensor for hsa-mir-208a) | 487 nM | 18 nM | 906 nM |  |  | 
12 | ACGCUCCAUGGAGGAUAUGGGCCUGCCCGGGAUACCGGGCCUAACACAUGAGGAUCACCCAUGUCCCAGAAGGCCGCUGGAGCC [Atgeenbite] (Eterna round: R96, puzzle: Same State NG 2) |  |  |  | 19.2 nM | 62.3 nM | 98.7 nM
13 | ACGUGGAUAUCACAGGAUAUACUCACAACUACAUGAGGAUCACCCAUGUAGCGGUAUUCCGGUGCGUAGAAGGGUGAUGGACCAC [Same State 2 - Mod of Artece v.3] (puzzle: Same State 2) | 12.1 nM | 12 nM | 11.4 nM |  |  | 
14 | ACUCAGUACAAUUUAGAUCUACAUGAGGAUCACCCAUGUACUGAGGAUAUCAGCUCGAUUAGAGCUGAGAAGGCAGUUGUACUA [SSNG3/10-A2] (Eterna round: R96, puzzle: Same State NG 3) |  |  |  | 82.3 nM | 161 nM | 125 nM
